This is an account of results in publication PMC5716189, “Characterization of the APLF FHA–XRCC1 phosphopeptide interaction and its structural and functional implications” (Nucleic Acids Research, 2017).

For test [1], the target named is XRCC1pSpT-9 none (pSer518; pThr519) (UniProt P18887). The test can be described thus: 1D 31P NMR pH titration of the free phosphopeptide (600 MHz). Particulars: pH 4.0-8.5, 35°C, no added NaCl (50 mM sodium acetate, 50 mM sodium cacodylate).
Test [2] has as its target XRCC4pSpT-12 none (pSer232; pThr233) (UniProt Q13426). Described as above. Conditions: pH 4.0-8.5, 35°C, no added NaCl (50 mM sodium acetate, 50 mM sodium cacodylate).
Test [3] deals with XRCC1pSpT-18 (unlabelled, NMR samples) none (pSer518; pThr519) (UniProt P18887). The test can be described thus: 1H,15N-HSQC titration with 1H lineshape simulation (500 MHz). Particulars: pH 7.4, 35°C, 150 mM NaCl, 25 mM HEPES, 25 mM MES.
XRCC1pSpT-18 (unlabelled, NMR samples) none (pSer518; pThr519), sequence (P18887 whole entry): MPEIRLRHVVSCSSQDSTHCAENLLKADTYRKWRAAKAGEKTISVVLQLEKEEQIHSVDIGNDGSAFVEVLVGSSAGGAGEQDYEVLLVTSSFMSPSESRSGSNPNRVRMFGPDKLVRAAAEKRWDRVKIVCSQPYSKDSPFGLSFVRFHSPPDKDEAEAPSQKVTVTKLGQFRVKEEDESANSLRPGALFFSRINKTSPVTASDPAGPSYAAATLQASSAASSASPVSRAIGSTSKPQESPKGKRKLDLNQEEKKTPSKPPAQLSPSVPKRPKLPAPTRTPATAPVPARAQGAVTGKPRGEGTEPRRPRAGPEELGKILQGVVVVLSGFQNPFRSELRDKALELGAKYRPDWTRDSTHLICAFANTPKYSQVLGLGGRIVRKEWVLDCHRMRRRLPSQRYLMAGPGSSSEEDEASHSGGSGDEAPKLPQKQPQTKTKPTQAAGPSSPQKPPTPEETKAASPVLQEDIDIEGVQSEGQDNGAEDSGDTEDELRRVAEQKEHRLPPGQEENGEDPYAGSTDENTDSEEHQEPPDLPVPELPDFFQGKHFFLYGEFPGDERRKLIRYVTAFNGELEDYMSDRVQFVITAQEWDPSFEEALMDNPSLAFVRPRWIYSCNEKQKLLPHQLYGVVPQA
Test [4] deals with XRCC1 tetraphosphorylated peptide (Homo sapiens) (UniProt P18887). Particulars: cited from earlier work.
XRCC1 tetraphosphorylated peptide (Homo sapiens), sequence (P18887 whole entry): as above
A further test concerns the target XRCC1 (Homo sapiens) (UniProt P18887). The test can be described thus: fluorescence. Particulars: cited from earlier work.

XRCC4pSpT-12 none (pSer232; pThr233), sequence (Q13426 whole entry): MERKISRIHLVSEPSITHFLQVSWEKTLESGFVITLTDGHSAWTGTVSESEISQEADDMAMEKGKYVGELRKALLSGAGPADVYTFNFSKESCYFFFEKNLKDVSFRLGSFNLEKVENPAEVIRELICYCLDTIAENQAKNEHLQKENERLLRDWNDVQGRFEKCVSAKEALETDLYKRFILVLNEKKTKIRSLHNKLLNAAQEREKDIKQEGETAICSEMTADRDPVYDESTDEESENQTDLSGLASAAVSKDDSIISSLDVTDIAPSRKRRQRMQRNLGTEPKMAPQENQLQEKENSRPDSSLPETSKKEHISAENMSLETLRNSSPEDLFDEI
XRCC1pSpT-9 none (pSer518; pThr519), sequence (P18887 whole entry): as the sequence (P18887 whole entry) above
XRCC1 (Homo sapiens), sequence (P18887 whole entry): as above

In test [1], APLF FHA domain yielded a pK, pSer518 phosphate of XRCC1pSpT-9 of 6.56 pH units and a pK, pThr519 phosphate of XRCC1pSpT-9 of 6.86 pH units. In addition, in test [2], the pK, pSer232 phosphate of XRCC4pSpT-12 stood at 6.9 pH units and the pK, pThr233 phosphate of XRCC4pSpT-12 is 7.22 pH units.

On to U-[15N] APLF FHA domain, for which the “τB (lifetime of the protein-peptide complex)” value in test [3] was 0.9 ms.

One may read the Kd as the equilibrium constant for the complex coming apart. Turning to PNKP FHA (from UniProt Q96T60), the dissociation constant (Kd) was 140 nM in test [4] and 3.5 nM with XRCC1 (Homo sapiens).
